# From patent publication US20080220450A1, “Population Based Prediction Methods for Immune Response Determinations and Methods for Verifying Immunological Response Data” (Danisco US, Inc., Genencor Division, priority 2004, published 2008)
# Molecular target: HLA-DR6(13) (human)
# Test: competition assay against a standard peptide on purified HLA class II
substance,measurement,value
"B. amyloliquifaciens subtilisin BPN' Y217L epitope peptide, amino acids 70-84 (from UniProt P00782 177-191)",IC50,0.69 nM
